The results in this text go back to publication PMC4220976, “Small-angle neutron scattering reveals the assembly mode and oligomeric architecture of TET, a large, dodecameric aminopeptidase” (Acta Crystallographica Section D: Biological Crystallography, 2014).

B1: Pyrococcus horikoshii TET2 aminopeptidase (PhTET2), wild type (enzyme)
chain: MEVRNMVDYELLKKVVEAPGVSGYEFLGIRDVVIEEIKDYVDEVKVDKLGNVIAHKKGEGPKVMIAAHMDQIGLMVTHIEKNGFLRVAPIGGVDPKTLIAQRFKVWIDKGKFIYGVGASVPPHIQKPEDRKKAPDWDQIFIDIGAESKEEAEDMGVKIGTVITWDGRLERLGKHRFVSIAFDDRIAVYTILEVAKQLKDAKADVYFVATVQEEVGLRGARTSAFGIEPDYGFAIDVTIAADIPGTPEHKQVTHLGKGTAIKIMDRSVICHPTIVRWLEELAKKHEIPYQLEILLGGGTDAGAIHLTKAGVPTGALSVPARYIHSNTEVVDERDVDATVELMTKALENIHELKI
modifications: dPhTET2: random-fractional deuteration, final level approximately 75%; hPhTET2: hydrogenated
notes: PhTET2, leucyl-aminopeptidase of the M42 family, Pyrococcus horikoshii; It was studied as a dimer (de-oligomerization buffer) and as a dodecamer; The preparation of hPhTET2 is not described separately; also called dPhTET2; hPhTET2; source: E. coli, purified (heating at 85°C, Resource Q, Superose 6); dPhTET2 grown in minimal medium with 85% D2O
B2: PhTET2 pentamutant (R217S, R220S, F224S, H248S and I292A) (enzyme, Pyrococcus horikoshii)
chain: B1 chain with R217S, R220S, F224S, H248S, I292A
modifications: deuterated form: random-fractional deuteration, final level approximately 75%; a hydrogenated form was also used
notes: PhTET2, leucyl-aminopeptidase of the M42 family, Pyrococcus horikoshii, with five mutations at the interface between the dimers; The mutant was designed in Appolaire et al. (2013) to slow the oligomerization process; Its deuterated and hydrogenated preparations are kept as one molecule; also called pentamutant PhTET2; mutated PhTET2; source: E. coli, purified (heating at 85°C, Resource Q, …)
B3: Pyrococcus horikoshii TET3 aminopeptidase (PhTET3), hydrogenated (enzyme)
chain: MDLKGGESMVDWKLMQEIIEAPGVSGYEHLGIRDIVVDVLKEVADEVKVDKLGNVIAHFKGSSPRIMVAAHMDKIGVMVNHIDKDGYLHIVPIGGVLPETLVAQRIRFFTEKGERYGVVGVLPPHLRRGQEDKGSKIDWDQIVVDVGASSKEEAEEMGFRVGTVGEFAPNFTRLNEHRFATPYLDDRICLYAMIEAARQLGDHEADIYIVGSVQEEVGLRGARVASYAINPEVGIAMDVTFAKQPHDKGKIVPELGKGPVMDVGPNINPKLRAFADEVAKKYEIPLQVEPSPRPTGTDANVMQINREGVATAVLSIPIRYMHSQVELADARDVDNTIKLAKALLEELKPMDFTP
notes: PhTET3, lysyl-aminopeptidase of the M42 family, Pyrococcus horikoshii; It was studied as a dimer (de-oligomerization buffer) and as a dodecamer; also called hPhTET3; hPhTET3 12s; source: E. coli, purified (heating at 85°C, Resource Q, Superose 6; as described by Durá et al., 2009)

Where a chain is given by its changes, count along the chain named. Names and notes keep the numbering of the source.

Data set [1] deals with the molecule itself. Nature of the data set: SEC; Superose 6 (native polyacrylamide gels also run) after dialysis of the dodecamers against de-oligomerization buffer: 50 mM CAPS, 20 mM NaCl, 20 mM EDTA pH 10.
Data set [2] deals with the molecule itself. Nature of the data set: small-angle neutron scattering (SANS); homododecameric reference samples: dPhTET2 12s in 42% D2O and hPhTET3 12s in 100% D2O; 20 mM Tris-HCl, 150 mM NaCl pH 7.5; 20°C.
Data set [3] has as its target B3. The experiment in a line: small-angle neutron scattering (SANS) with contrast variation; peak 2 (particle 2) heterododecamer of dPhTET2 and hPhTET3; 4.5 mg/ml; 20 mM Tris-HCl, 150 mM NaCl pH 7.5; 0, 49, 70 and 100% D2O; 20 to 80°C; mass calibrated against water; models scored with CRYSON. As to conditions: both partners purified.
Data set [4] has as its target B3. Nature of the data set: small-angle neutron scattering (SANS) with contrast variation; peak 1 (particle 1) heterododecamer of dPhTET2 and hPhTET3; 4.5 mg/ml; 20 mM Tris-HCl, 150 mM NaCl pH 7.5; 0, 42, 70 and 100% D2O; 20 to 80°C; mass calibrated against water; models scored with CRYSON. Particulars: both partners purified.
Data set [5] concerns the molecule itself. Described as above.
Data set [6] concerns the molecule itself. The experiment in a line: small-angle neutron scattering (SANS); 1:1 mixtures of preformed homododecameric deuterated and hydrogenated PhTET2 (wild type or pentamutant) in 42% or 100% D2O; temperature raised from 20 to 80°C, 4 h at each temperature.
Data set [7] deals with the molecule itself. Nature of the data set: small-angle neutron scattering (SANS) with contrast variation; peak 2 (particle 2) heterododecamer of dPhTET2 and hPhTET3; 4.5 mg/ml; 20 mM Tris-HCl, 150 mM NaCl pH 7.5; 0, 49, 70 and 100% D2O; 20 to 80°C; mass calibrated against water; models scored with CRYSON.

As a reminder, the stoichiometry N is the number of molecules, sites or subunits per partner or assembly. Turning to B1, the “stoichiometry N” value in data set [1] is 2; in data set [2], 12; in data set [3] it was 2 dPhTET2:hPhTET3 (8:4); in data set [4] it was 1 dPhTET2:hPhTET3 (6:6); in data set [5] it was 6.
As for B2, the “stoichiometry N” value in data set [6] came out at 12.
As to B3, the entries for the “stoichiometry N” value in data set [2], in data set [7] and in data set [5] were 12, 2 and 6, respectively.
